Measured values taken from patent CN117858904A.

Target: 人SIRPα抗原 (human signal regulatory protein alpha, proprietary antigen) (human) (UniProt P78324)
Experiment: BLI (Octet Red384), SIRPa on AR2G sensor, 50 nM CD47 without antibody as analyte (positive control), 1200 s association

UniProt P78324, sequence (P78324 31-370 limits assumed): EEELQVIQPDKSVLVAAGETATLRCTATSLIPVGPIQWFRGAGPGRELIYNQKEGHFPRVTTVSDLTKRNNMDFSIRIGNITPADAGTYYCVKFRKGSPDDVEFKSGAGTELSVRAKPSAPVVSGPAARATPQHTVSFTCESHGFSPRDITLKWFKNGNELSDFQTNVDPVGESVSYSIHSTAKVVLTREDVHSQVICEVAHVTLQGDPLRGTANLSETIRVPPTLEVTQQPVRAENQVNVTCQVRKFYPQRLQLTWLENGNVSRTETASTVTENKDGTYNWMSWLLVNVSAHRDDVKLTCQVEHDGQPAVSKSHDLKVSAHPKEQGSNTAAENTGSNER

- 信号 (response): 0.297 nm
Substance: 专有CD47抗原 (proprietary human CD47 antigen of Examples 6 and 7) (from UniProt Q08722 19-139) (receptor)
